Positions count from the first letter of the chain named. Numbers in names are those of the source.
T1: RapF-E71A (B. subtilis, UniProt P71002 2-381, E71A)
T1 construct: RapF, Bacillus subtilis, with one alanine substitution; Text S1 may tell
T1 sequence: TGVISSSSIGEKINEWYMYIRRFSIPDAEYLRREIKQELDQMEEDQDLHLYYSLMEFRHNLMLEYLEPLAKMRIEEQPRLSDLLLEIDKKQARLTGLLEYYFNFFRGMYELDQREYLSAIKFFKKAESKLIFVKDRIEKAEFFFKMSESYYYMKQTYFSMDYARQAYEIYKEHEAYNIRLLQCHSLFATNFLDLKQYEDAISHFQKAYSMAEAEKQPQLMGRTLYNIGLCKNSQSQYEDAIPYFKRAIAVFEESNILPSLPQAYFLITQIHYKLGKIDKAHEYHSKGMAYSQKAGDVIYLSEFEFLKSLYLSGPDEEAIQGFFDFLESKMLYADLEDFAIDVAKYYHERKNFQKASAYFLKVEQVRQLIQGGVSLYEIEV

T2: RapF-P27A (B. subtilis, UniProt P71002 2-381, P27A)
T2 construct: RapF, Bacillus subtilis, with one alanine substitution; Text S1 may tell
T2 sequence: T1 sequence with P26A, A70E

B1: ComA-T190A (His-ComA mutant) (natural protein, B. subtilis, UniProt P14204 1-214, looked up)
chain: MKKILVIDDHPAVMEGTKTILETDSNLSVDCLSPEPSEQFIKQHDFSSYDLILMDLNLGGEVNGMELSKQILQENPHCKIIVYTGYEVEDYFEEAIRAGLHGAISKTESKEKITQYIYHVLNGEILVDFAYFKQLMTQQKTKPAPSSQKEQDVLTPRECLILQEVEKGFTNQEIADALHLSKRSIEYSLASIFNKLNVGSRTEAVLIAKSDGVL
notes: ComA, Bacillus subtilis, full length, with one alanine substitution
B2: ComA-N194A (His-ComA mutant) (natural protein, B. subtilis, UniProt P14204 1-214, looked up)
chain: B1 chain with A190T, N194A
notes: as for B1
B3: ComA-R157A (His-ComA mutant) (natural protein, B. subtilis, UniProt P14204 1-214, looked up)
chain: B1 chain with R157A, A190T
notes: as for B1
B4: ComA-Y187A (His-ComA mutant) (natural protein, B. subtilis, UniProt P14204 1-214, looked up)
chain: B1 chain with Y187A, A190T
notes: as for B1
B5: His-ComA (wild-type full-length ComA with His tag) (natural protein, B. subtilis, UniProt P14204 1-214, looked up)
chain: B1 chain with A190T
notes: ComA response regulator, Bacillus subtilis, full length; Purification of His-ComA is in Text S1; also called ComA2
B6: ComA (wild-type full-length ComA, no tag named) (natural protein, B. subtilis, UniProt P14204 1-214, looked up)
chain: B1 chain with A190T
notes: ComA response regulator, Bacillus subtilis, full length; Native PAGE used 'either 10 µM ComA or 10 µM His-ComA as indicated'; Purification of ComA is in Text S1; also called ComAFL
B7: ComA DNA binding domain (ComAC) (domain or fragment, B. subtilis, UniProt P14204 146-214, looked up)
chain: SSQKEQDVLTPRECLILQEVEKGFTNQEIADALHLSKRSIEYSLTSIFNKLNVGSRTEAVLIAKSDGVL
notes: also called His-ComAC
B8: PhrF peptide (peptide)
peptide: QRGMI
notes: mature PhrF signalling pentapeptide of Bacillus subtilis, cut from the pro-PhrF polypeptide; Free N- and C-termini as printed (NH2-QRGMI-COOH); also called synthetic PhrF peptide; NH2-QRGMI-COOH; source: synthetic peptide (LifeTein)
B9: RapF (natural protein, B. subtilis)
chain: GSMTGVISSSSIGEKINEWYMYIRRFSIPDAEYLRREIKQELDQMEEDQDLHLYYSLMEFRHNLMLEYLEPLEKMRIEEQPRLSDLLLEIDKKQARLTGLLEYYFNFFRGMYELDQREYLSAIKFFKKAESKLIFVKDRIEKAEFFFKMSESYYYMKQTYFSMDYARQAYEIYKEHEAYNIRLLQCHSLFATNFLDLKQYEDAISHFQKAYSMAEAEKQPQLMGRTLYNIGLCKNSQSQYEDAIPYFKRAIAVFEESNILPSLPQAYFLITQIHYKLGKIDKAHEYHSKGMAYSQKAGDVIYLSEFEFLKSLYLSGPDEEAIQGFFDFLESKMLYADLEDFAIDVAKYYHERKNFQKASAYFLKVEQVRQLIQGGVSLYEIEV
notes: two heterologous residues (Gly-Ser) derived from the thrombin cleavage signal, left after removal of the N-terminal GST; RapF, Bacillus subtilis, residues 1-381; The purification is told under 'Protein Purification for Crystallization'; Monomer by SE AUC; also called wild-type RapF; source: E. coli BL21, purified (glutathione resin, thrombin cleavage, anion exchange, gel filtration); not shown: …

Columns and labels:
RapF [1] = biological target: B9; assay: native gel or EMSA; 10 µM RapF and 10 µM ComA or His-ComA incubated in Buffer A (20 mM Tris pH 8.0, 300 mM NaCl, 5 mM MgCl2, 1 mM DTT, 5% glycerol) 30 min at 4°C; 12% Tris-glycine native PAGE at 4°C, Coomassie; disappearance of the ComA band as indicator; conditions: both partners purified
[2] = biological target: the molecule itself; assay: SEC; Superdex 200 HR10/30 in Buffer A; RapF 20 µM, His-ComA 40 µM, incubated 30 min at 4°C; fractions by SDS-PAGE; no PhrF
RapF [3] = biological target: B9; assay: native gel or EMSA; native PAGE binding studies with a broad concentration range of RapF and a fixed quantity of ComA (unpublished data), together with the qualitative gels; Kd is an estimate; conditions: both partners purified
RapF-E71A = biological target: T1, RapF-E71A; assay: native gel or EMSA; 10 µM RapF and 10 µM ComA or His-ComA incubated in Buffer A (20 mM Tris pH 8.0, 300 mM NaCl, 5 mM MgCl2, 1 mM DTT, 5% glycerol) 30 min at 4°C; 12% Tris-glycine native PAGE at 4°C, Coomassie; disappearance of the ComA band as indicator; conditions: both partners purified
RapF-P27A = biological target: T2, RapF-P27A; assay: as above; conditions: both partners purified
RapF [4] = biological target: B9; assay: crystal structure; RapF-ComAC co-crystals, vapor diffusion at 20°C, 1∶1 mixture of 100 µM RapF and ComAC; 6% PEG 8,000, 240 mM calcium acetate, 80 mM sodium cacodylate pH 6.5, 20% glycerol; 2.30 Å; conditions: both partners purified
RapF [5] = biological target: B9; assay: SEC; Superdex 200 HR10/30 in Buffer A; RapF 20 µM, His-ComA 40 µM, with PhrF 200 µM, incubated 30 min at 4°C; fractions by SDS-PAGE; conditions: both partners purified
[6] = biological target: B5; assay: SEC + other: total amino acid analysis; 40 µM RapF and 80 µM His-ComA in Buffer A on Superdex 200 HR10/30; fractions 12.0-13.5 ml, bands separated by SDS-PAGE and excised for total amino acid analysis (unpublished data); conditions: both partners purified

B1
binding result (RapF [1]): binds

B2
binding result (RapF [1]): binds

B3
binding result (RapF [1]): binds

B4
binding result (RapF [1]): binds

B5
stoichiometry N [2]: 2

B6
Kd (RapF [3]): 1 to 10 µM
binding result (RapF-E71A): binds
binding result (RapF-P27A): binds

B7
binding result (RapF [4]): binds

B8
binding result (RapF [5]): binds

B9
stoichiometry N [6]: 1
